Source: paper PMC4864278 (The EMBO Journal, 2016)

B1: TRIM32 RING/B-box2 (1–140) (domain or fragment, UniProt Q13049 1-140, looked up)
chain: MAAAAASHLNLDALREVLECPICMESFTEEQLRPKLLHCGHTICRQCLEKLLASSINGVRCPFCSKITRITSLTQLTDNLTVLKIIDTAGLSEAVGLLMCRSCGRRLPRQFCRSCGLVLCEPCREADHQPPGHCTLPVKE
B2: TRIM25 RBCC (1–433) (domain or fragment, UniProt Q14258 1-433, looked up)
chain: MAELCPLAEELSCSICLEPFKEPVTTPCGHNFCGSCLNETWAVQGSPYLCPQCRAVYQARPQLHKNTVLCNVVEQFLQADLAREPPADVWTPPARASAPSPNAQVACDHCLKEAAVKTCLVCMASFCQEHLQPHFDSPAFQDHPLQPPVRDLLRRKCSQHNRLREFFCPEHSECICHICLVEHKTCSPASLSQASADLEATLRHKLTVMYSQINGASRALDDVRNRQQDVRMTANRKVEQLQQEYTEMKALLDASETTSTRKIKEEEKRVNSKFDTIYQILLKKKSEIQTLKEEIEQSLTKRDEFEFLEKASKLRGISTKPVYIPEVELNHKLIKGIHQSTIDLKNELKQCIGRLQEPTPSSGDPGEHDPASTHKSTRPVKKVSKEEKKSKKPPPVPALPSKLPTFGAPEQLVDLKQAGLEAAAKATSSHPNS
B3: TRIM32 RBCC (1–354) (domain or fragment, UniProt Q13049 1-354, looked up)
chain: MAAAAASHLNLDALREVLECPICMESFTEEQLRPKLLHCGHTICRQCLEKLLASSINGVRCPFCSKITRITSLTQLTDNLTVLKIIDTAGLSEAVGLLMCRSCGRRLPRQFCRSCGLVLCEPCREADHQPPGHCTLPVKEAAEERRRDFGEKLTRLRELMGELQRRKAALEGVSKDLQARYKAVLQEYGHEERRVQDELARSRKFFTGSLAEVEKSNSQVVEEQSYLLNIAEVQAVSRCDYFLAKIKQADVALLEETADEEEPELTASLPRELTLQDVELLKVGHVGPLQIGQAVKKPRTVNVEDSWAMEATASAASTSVTFREMDMSPEEVVASPRASPAKQRGPEAASNIQQ
B4: TRIM25 RING domain (1–82) (domain or fragment, UniProt Q14258 1-82, looked up)
chain: MAELCPLAEELSCSICLEPFKEPVTTPCGHNFCGSCLNETWAVQGSPYLCPQCRAVYQARPQLHKNTVLCNVVEQFLQADLA

Assays:
[1] = biological target: the molecule itself; assay: SAXS; batch SAXS, Diamond Light Source beamline B21; at least three dilutions of each construct; concentrations as in Table 2
[2] = biological target: the molecule itself; assay: SAXS; SEC in line with SAXS, SWING beamline at SOLEIL, SEC-3 300 Å Agilent column, 15°C; 2.5 mg/ml TRIM25 RBCC, 6 mg/ml TRIM32 RBCC injected
ubiquitin = ubiquitin (bovine, UniProt P0CG53 1-76, isopeptide-linked to UBE2D1); assay: crystal structure; TRIM25 RING domain (8 mg/ml) mixed with isopeptide-linked UBE2D1-Ub (10 mg/ml) at a 1:1 molar ratio; 100 mM Tris pH 8.5, 10% PEG 20,000, 18°C; 2.34 Å; conditions: both partners purified

| Binder | stoichiometry N [2] | also measured |
| --- | --- | --- |
| B1 |  | stoichiometry N [1]: 2 |
| B2 | 2 |  |
| B3 | 4 |  |
| B4 |  | binding result (ubiquitin): binds |
